From publication PMC6453860

Columns and labels:
Settings in all cases: glycan lost; control: wild-type ASGP-R1 in U87 cells
[1] = SMN2 exon 7 inclusion RT-PCR, 0-30 µM dose response
[2] = SMN2 exon 7 inclusion RT-PCR, single 30 nM dose
[3] = Western blot quantification normalised to tubulin

| Protein | other: receptor-mediated GN3-ASO uptake and activity, fold_change [1] | other: receptor-mediated GN3-ASO uptake and activity [2] | expression_or_secretion [3] |
| --- | --- | --- | --- |
| ASGP-R1 H1a (asialoglycoprotein receptor 1): N79Q (protein) parent chain: MTKEYQDLQHLDNEESDHHQLRKGPPPPQPLLQRLCSGPRLLLLSLGLSLLLLVVVCVIGSQNSQLQEELRGLRETFSNFTASTEAQVKGLSTQGGNVGRKMKSLESQLEKQQKDLSEDHSSLLLHVKQFVSDLRSLSCQMAALQGNGSERTCCPVNWVEHERSCYWFSRSGKAWADADNYCRLEDAHLVVVTSWEEQKFVQHHIGPVNTWMGLHDQNGPWKWVDGTDYETGFKNWRPEQPDDWYGHGLGGGEDCAHFTDDGRWNDDVCQRPYRWVCETELDKASQEPPLL | no change | no change | no change |
| ASGP-R1 H1a (asialoglycoprotein receptor 1): N147Q (protein) parent chain: MTKEYQDLQHLDNEESDHHQLRKGPPPPQPLLQRLCSGPRLLLLSLGLSLLLLVVVCVIGSQNSQLQEELRGLRETFSNFTASTEAQVKGLSTQGGNVGRKMKSLESQLEKQQKDLSEDHSSLLLHVKQFVSDLRSLSCQMAALQGNGSERTCCPVNWVEHERSCYWFSRSGKAWADADNYCRLEDAHLVVVTSWEEQKFVQHHIGPVNTWMGLHDQNGPWKWVDGTDYETGFKNWRPEQPDDWYGHGLGGGEDCAHFTDDGRWNDDVCQRPYRWVCETELDKASQEPPLL | no change | no change | no change |
| ASGP-R1 H1a (asialoglycoprotein receptor 1): N79Q/N147Q (protein) parent chain: MTKEYQDLQHLDNEESDHHQLRKGPPPPQPLLQRLCSGPRLLLLSLGLSLLLLVVVCVIGSQNSQLQEELRGLRETFSNFTASTEAQVKGLSTQGGNVGRKMKSLESQLEKQQKDLSEDHSSLLLHVKQFVSDLRSLSCQMAALQGNGSERTCCPVNWVEHERSCYWFSRSGKAWADADNYCRLEDAHLVVVTSWEEQKFVQHHIGPVNTWMGLHDQNGPWKWVDGTDYETGFKNWRPEQPDDWYGHGLGGGEDCAHFTDDGRWNDDVCQRPYRWVCETELDKASQEPPLL | – | no change | no change |
